Experimental data published in paper PMC7021683, “RNA sequence and length contribute to RNA-induced conformational change of TLS/FUS”.

Columns and labels:
[1] = target: T1, MBP-BFP-TLS-GFP-6xHis (TLS/FUS) (UniProt P35637 1-526); experiment: FRET; Anisotropy: 5 mM Tris-HCl pH 7.6, 25 mM NaCl, 0.1% CHAPS, 2.5 mM glucose, 0.5 mM DTT, 25 C, 100 nM TAMRA-RNA; FRET buffer not in material; conditions: protein: recombinant, tags: N-term MBP, TagBFP, C-term TagGFP2, 6xHis
[2] = target: T1, MBP-BFP-TLS-GFP-6xHis (TLS/FUS); experiment: as above; conditions: protein: recombinant; tags: N-term MBP, TagBFP; C-term TagGFP2, 6xHis
[3] = target: T1, MBP-BFP-TLS-GFP-6xHis (TLS/FUS); experiment: fluorescence anisotropy; 100 nM RNA; Anisotropy: 5 mM Tris-HCl pH 7.6, 25 mM NaCl, 0.1% CHAPS, 2.5 mM glucose, 0.5 mM DTT, 25 C, 100 nM TAMRA-RNA; FRET buffer not in material; conditions: protein: recombinant; tags: N-term MBP, TagBFP; C-term TagGFP2, 6xHis; label: TAMRA
[4] = target: T1, MBP-BFP-TLS-GFP-6xHis (TLS/FUS); experiment: FRET; Anisotropy: 5 mM Tris-HCl pH 7.6, 25 mM NaCl, 0.1% CHAPS, 2.5 mM glucose, 0.5 mM DTT, 25 C, 100 nM TAMRA-RNA; FRET buffer not in material; conditions: protein: recombinant; tags: N-term MBP, TagBFP; C-term TagGFP2, 6xHis; remark: listed apart in the source

T1 sequence (P35637 whole entry): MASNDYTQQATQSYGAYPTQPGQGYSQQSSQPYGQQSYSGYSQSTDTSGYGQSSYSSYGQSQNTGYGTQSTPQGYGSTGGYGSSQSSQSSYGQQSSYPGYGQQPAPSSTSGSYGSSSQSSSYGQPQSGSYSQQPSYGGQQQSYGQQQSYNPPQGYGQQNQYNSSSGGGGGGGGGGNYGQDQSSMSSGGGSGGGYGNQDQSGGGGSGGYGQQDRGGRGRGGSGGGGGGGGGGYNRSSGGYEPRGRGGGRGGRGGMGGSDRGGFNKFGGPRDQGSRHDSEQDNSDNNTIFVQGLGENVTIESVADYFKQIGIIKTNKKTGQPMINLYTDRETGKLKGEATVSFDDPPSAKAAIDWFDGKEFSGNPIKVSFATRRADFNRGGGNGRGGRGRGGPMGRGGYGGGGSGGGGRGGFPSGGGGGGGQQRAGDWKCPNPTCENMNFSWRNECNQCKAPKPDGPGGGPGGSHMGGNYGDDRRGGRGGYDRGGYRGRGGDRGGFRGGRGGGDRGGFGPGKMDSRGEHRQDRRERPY

B1: R19 (3'-pncRNA) (structured_RNA)
RNA: CGGUGGUUUGAUGACACUG
With B1 the binding signal ([1]; stem-loop) was 0.055 ± 0.0099 |dE| FRET.

B2: R6 (ssRNA)
RNA: GAGGGU
B2: binds [2].

B3: R12 (ssRNA)
RNA: GUUAAGAGGGUA
B3: binds [2].

B4: TAMRA-U31 (ssRNA)
RNA: UUUUUUUUUUUUUUUUUUUUUUUUUUUUUUU
B4: binds [3].

B5: R13 (5'-pncRNA) (ssRNA)
RNA: GUUAAGAGGGUAC
B5 was tested, and the binding signal [1] was 0.0663 ± 0.0091 |dE| FRET.

B6: D19 (ssDNA)
DNA: CGGTGGTTTGATGACACTG
B6 was tested, and the binding signal [4] was 0.0309 ± 0.0025 |dE| FRET.

B7: D13 (ssDNA)
DNA: GTTAAGAGGGTAC
B7 was tested, and the binding signal [4] was 0.0175 ± 0.0018 |dE| FRET.

B8: D31 (ssDNA)
DNA: GTTAAGAGGGTACGGTGGTTTGATGACACTG
With B8 the binding signal [4] was 0.0594 ± 0.0039 |dE| FRET.
